The values below come from patent US20060234285A1 (Human Genome Sciences, published 2006).

B6: TNFR-6 alpha-Fc fusion protein (full length TNFR-6 alpha, amino acids 1-300 of SEQ ID NO:2, fused to the Fc domain of human IgG1) (Fc fusion, not shown: a dimerising Fc or GST)
chain: VAETPTYPWRDAETGERLVCAQCPPGTFVQRPCRRDSPTTCGPCPPRHYTQFWNYLERCRYCNVLCGEREEEARACHATHNRACRCRTGFFAHAGFCLEHASCPPGAGVIAPGTPSQNTQCQPCPPGTFSASSSSSEQCQPHRNCTALGLALNVPGSSSHDTLCTSCTGFPLSTRVPGAEECERAVIDFVAFQDISIKRLQRLLQALEAPEGWGPTPRAGRAALQLKLRRRLTELLGAQDGALLVRLLQALRVARMPGLERSVRERFLPVH
B8: Soluble human FLAG-FasL (synthesized at HGS) (ligand, UniProt P48023 130-281, looked up, not shown: small tags and cut ends)
chain: QIGHPSPPPEKKELRKVAHLTGKSNSRSMPLEWEDTYGIVLLSGVKYKKGGLVINETGLYFVYSKVYFRGQSCNNLPLSHKVYMRNSKYPQDLVMMEGKMMSYCTTGQMWARSSYLGAVFNLTSADHLYVNVSELSLVNFEESQTFFGLYKL
notes: called trimerized in the kinetic BIAcore run; cross-linked with FLAG antibody in the cell assays; also called FasL-Flag; trimerized FLAG-FasL

Assay [1] concerns the target T1, FLAG-tagged soluble form of TNF-gamma-beta (aa 72-251) (human, UniProt O95150 72-251).
T1 construct: also called FLAG-TL1β; FLAG-TNF-gamma-beta
T1 sequence (looked up): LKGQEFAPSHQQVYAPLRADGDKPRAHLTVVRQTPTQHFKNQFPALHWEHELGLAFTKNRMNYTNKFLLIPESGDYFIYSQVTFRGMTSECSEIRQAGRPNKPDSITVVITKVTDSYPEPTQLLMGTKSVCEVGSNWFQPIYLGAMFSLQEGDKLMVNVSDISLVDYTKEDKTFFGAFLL
Kind of assay: coimmunoprecipitation with protein A-Sepharose, anti-Flag western blot. The text has this:
The beads were then precipitated and washed extensively with PBST buffer (PBS, 0.5% Triton X-100) before boiled in SDS-sample buffer. Proteins were resolved on 4-20% Tris-Glycine gels (NOVEX), transferred to nitrocellulose membranes, and blotted with anti-Flag M2 monoclonal antibody (1 microgram/ml, Sigma) and horseradish peroxidase (HRP)-conjugated goat anti-mouse IgG antibody (0.5 microgram/ml).
For orientation: Immunoblotting shows a protein as a band on a membrane.

The target of assay [2] is T2, TNF-gamma-beta, full length, on transfected cells (human, UniProt O95150 1-251).
T2 construct: whole, on cells; also called TL1β
T2 sequence (looked up): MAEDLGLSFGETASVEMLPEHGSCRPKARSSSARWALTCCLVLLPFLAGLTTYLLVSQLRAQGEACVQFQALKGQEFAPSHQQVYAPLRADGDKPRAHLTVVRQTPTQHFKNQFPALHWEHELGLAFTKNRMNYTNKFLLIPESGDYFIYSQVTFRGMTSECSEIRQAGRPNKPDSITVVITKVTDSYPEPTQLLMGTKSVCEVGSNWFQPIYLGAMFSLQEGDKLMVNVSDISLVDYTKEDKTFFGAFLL
Kind of assay: flow cytometry on HEK293F cells expressing full length TNF-gamma-beta. How it is done: One million cells, in 0.1 ml of FACS buffer (PBS, 0.1% BSA, 0.1% NaN₃), were incubated with 0.1-1 microgram of protein or antibody at RT for 15 min. The cells were washed with 3 ml of FACS buffer, reacted with biotinylated primary antibody, and stained with PE-conjugated secondary antibody at RT for 15 min. Cells were then washed again, resuspended in 0.5 microgram/ml of propidium iodide, and live cells were gated and analyzed on a FACScan using the CellQuest software (BD Biosciences).

The target in assay [3] is B6. Kind of assay: BIAcore. (Surface plasmon resonance follows binding to a sensor surface in real time, without labels.)
The target in another assay is T3, TNFR-6 alpha-(His) (human, UniProt O95407 30-300).
T3 construct: also called TNFR-6α; DcR3
T3 sequence: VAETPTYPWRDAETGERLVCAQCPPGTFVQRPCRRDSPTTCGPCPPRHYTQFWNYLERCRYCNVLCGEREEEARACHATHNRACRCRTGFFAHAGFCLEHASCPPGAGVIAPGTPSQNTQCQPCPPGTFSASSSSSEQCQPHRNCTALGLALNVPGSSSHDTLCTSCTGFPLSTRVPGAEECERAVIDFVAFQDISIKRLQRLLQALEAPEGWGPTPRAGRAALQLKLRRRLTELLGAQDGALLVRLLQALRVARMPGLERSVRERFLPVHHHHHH
Kind of assay: flow cytometry on AIM-II-transfected HEK 293 EBNA cells. In general terms: Flow cytometry measures light scatter and fluorescence of single cells or particles in a stream.

Assay [4] addresses T4, sFas ligand (Alexis Corporation) with a FLAG epitope tag at its N-terminus (human, UniProt P48023 103-281).
T4 sequence (looked up): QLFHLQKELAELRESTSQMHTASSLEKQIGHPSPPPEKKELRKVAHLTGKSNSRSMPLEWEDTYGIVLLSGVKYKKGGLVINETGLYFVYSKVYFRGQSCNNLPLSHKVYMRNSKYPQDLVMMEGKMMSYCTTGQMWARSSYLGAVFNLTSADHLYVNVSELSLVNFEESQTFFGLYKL
Kind of assay: cell-based or functional assay.

The target of assay [5] is B8. Kind of assay: cell-based or functional assay.
Assay [6] addresses T5, Murine FasL on transfected murine L929 cells (murine, UniProt P41047 1-279).
T5 sequence (looked up): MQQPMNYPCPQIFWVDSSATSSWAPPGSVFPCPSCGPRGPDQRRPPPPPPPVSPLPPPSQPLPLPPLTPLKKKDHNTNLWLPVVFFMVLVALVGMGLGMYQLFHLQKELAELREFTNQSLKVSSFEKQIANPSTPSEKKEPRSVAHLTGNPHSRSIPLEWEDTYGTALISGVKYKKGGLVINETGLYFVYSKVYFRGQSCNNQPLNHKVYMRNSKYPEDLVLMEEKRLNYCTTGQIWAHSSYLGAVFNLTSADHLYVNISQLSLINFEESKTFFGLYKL
Kind of assay: cell-based or functional assay.

Assay [7] addresses B6. Kind of assay: BIAcore, TR6-Fc immobilized, trimerized FLAG-FasL soluble.
For assay [8], the target named is T6, Full-length human TR6 (without Fc) (human, UniProt O95407 30-300).
T6 construct: Full-length cDNA expressed in Sf9 cells with the natural leader; also called TR6 non-Fc; TR6-non-Fc
T6 sequence: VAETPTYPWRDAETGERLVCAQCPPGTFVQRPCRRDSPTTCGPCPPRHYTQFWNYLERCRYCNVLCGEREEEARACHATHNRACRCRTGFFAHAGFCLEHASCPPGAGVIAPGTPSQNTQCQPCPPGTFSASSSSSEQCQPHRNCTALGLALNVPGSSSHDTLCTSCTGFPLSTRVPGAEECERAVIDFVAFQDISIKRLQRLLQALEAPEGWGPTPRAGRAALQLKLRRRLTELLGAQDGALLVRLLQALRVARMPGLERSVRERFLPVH
Kind of assay: BIAcore, FasL-Flag soluble.

B1: TACI-Fc (extracellular domain of human TAC1, aa 1-159, fused to the Fc domain of human IgG1) (Fc fusion, UniProt O14836 1-159, looked up, not shown: a dimerising Fc or GST)
chain: MSGLGRSRRGGRSRVDQEERFPQGLWTGVAMRSCPEEQYWDPLLGTCMSCKTICNHQSQRTCAAFCRSLSCRKEQGKFYDHLLRDCISCASICGQHPKQCAYFCENKLRSPVNLPPELRRQRSGEVENNSDNSGRYQGLEHRGSEASPALPGLKLSADQ
notes: range 1-159; also called TAC1-Fc
Regarding B1, the binding result in [1] and in assay [2] was “no binding” in each case.

B2: TNFR1-Fc (Fc fusion, UniProt P19438 30-211, looked up, not shown: a dimerising Fc or GST)
chain: LVPHLGDREKRDSVCPQGKYIHPQNNSICCTKCHKGTYLYNDCPGPGQDTDCRECESGSFTASENHLRHCLSCSKCRKEMGQVEISSCTVDRDTVCGCRKNQYRHYWSENLFQCFNCSLCLNGTVHLSCQEKQNTVCTCHAGFFLRENECVSCSNCKKSLECTKLCLPQIENVKGTEDSGTT
notes: extracellular domain; also called TNFRLFc
As for B2, in assay [2], the binding result is listed as “no binding”.

B3: Extra-cellular portion of FasL (Oncogene Research Products), amino acids 103-281 (ligand, human, UniProt P48023 103-281, looked up)
chain: QLFHLQKELAELRESTSQMHTASSLEKQIGHPSPPPEKKELRKVAHLTGKSNSRSMPLEWEDTYGIVLLSGVKYKKGGLVINETGLYFVYSKVYFRGQSCNNLPLSHKVYMRNSKYPQDLVMMEGKMMSYCTTGQMWARSSYLGAVFNLTSADHLYVNVSELSLVNFEESQTFFGLYKL
notes: range 103-281; Immobilised on a BIAcore chip (2020 RU); also called immobilized FasL
Turning to B3, the binding result in assay [3] is recorded as “binds”.

B4: AIM-II, full sequence, on stably transfected HEK 293 EBNA cells (ligand, UniProt O43557 1-240, looked up)
chain: MEESVVRPSVFVVDGQTDIPFTRLGRSHRRQSCSVARVGLGLLLLLMGAGLAVQGWFLLQLHWRLGEMVTRLPDGPAGSWEQLIQERRSHEVNPAAHLTGANSSLTGSGGPLLWETQLGLAFLRGLSYHDGALVVTKAGYYYIYSKVQLGGVGCPLGLASTITHGLYKRTPRYPEELELLVSQQSPCGRATSSSRVWWDSSFLGGVVHLEAGEKVVVRVLDERLVRLRDGTRSYFGAFMV
notes: whole, on cells
Regarding B4, in the assay with TNFR-6 alpha-(His), the binding result is “binds”.

B5: DcR2-Fc (Fc fusion, UniProt Q9UBN6 56-211, looked up, not shown: a dimerising Fc or GST)
chain: ATIPRQDEVPQQTVAPQQQRRSLKEEECPAGSHRSEYTGACNPCTEGVDYTIASNNLPSCLLCTVCKSGQTNKSSCTTTRDTVCQCEKGSFQDKNSPEMCRTCRTGCPRGMVKVSNCTPRSDIKCKNESAASSTGKTPAAEETVTTILGMLASPYH
notes: extracellular domain
B5: the binding result in assay [2] was “no binding”.
With B6, the “IC50 (read off the curve): TR6Fc concentration giving half rescue of Jurkat viability from sFasL 20 ng (Alamar blue, OD 570 nm - 630 nM)” value in [4] is approximately 5 ng/mL. Further, the “potency against FasL-induced Jurkat cytotoxicity relative to Fas-Fc” value in assay [5] amounted to 100 fold. For the same molecule, in assay [6], the “IC50 of inhibition of killing of A20 target cells by murine FasL-transfected L929 cells” value is approximately 1 ng/mL.

B7: OX40-Fc (Fc fusion, UniProt P43489 29-214, looked up, not shown: a dimerising Fc or GST)
chain: LHCVGDTYPSNDRCCHECRPGNGMVSRCSRSQNTVCRPCGPGFYNDVVSSKPCKPCTWCNLRSGSERKQLCTATQDTVCRCRAGTQPLDSYKPGVDCAPCPPGHFSPGDNQACKPWTNCTLAGKHTLQPASNSSDAICEDRDPPATQPQETQGPPARPITVQPTEAWPRTSQGPSTRPVEVPGGRA
notes: extracellular domain
As for B7, the binding result in assay [2] is reported as “no binding”.
The term Kd denotes the equilibrium constant for the complex coming apart. For B8, the Kd amounted to 4.6 nM in assay [7] and 17 nM in assay [8].

B9: OPG-Fc (Fc fusion, UniProt O00300 22-201, looked up, not shown: a dimerising Fc or GST)
chain: ETFPPKYLHYDEETSHQLLCDKCPPGTYLKQHCTAKWKTVCAPCPDHYYTDSWHTSDECLYCSPVCKELQYVKQECNRTHNRVCECKEGRYLEIEFCLKHRSCPPGFGVVQAGTPERNTVCKRCPDGFFSNETSSKAPCRKHTNCSVFGLLLTQKGNATHDNICSGNSESTQKCGIDVTL
notes: extracellular domain
In the case of B9, the binding result in assay [2] is given as “no binding”.

B10: AITR-Fc (Fc fusion, UniProt Q9Y5U5 26-162, looked up, not shown: a dimerising Fc or GST)
chain: QRPTGGPGCGPGRLLLGTGTDARCCRVHTTRCCRDYPGEECCSEWDCMCVQPEFHCGDPCCTTCRHHPCPPGQGVQSQGKFSFGFQCIDCASGTFSGGHEGHCKPWTDCTQFGFLTVFPGNKTHNAVCVPGSPPAEP
notes: extracellular domain
For the molecule B10, in assay [2], the binding result is reported as “no binding”.

B11: RANK-Fc (Fc fusion, UniProt Q9Y6Q6 30-212, looked up, not shown: a dimerising Fc or GST)
chain: IAPPCTSEKHYEHLGRCCNKCEPGKYMSSKCTTTSDSVCLPCGPDEYLDSWNEEDKCLLHKVCDTGKALVAVVAGNSTTPRRCACTAGYHWSQDCECCRRNTECAPGLGAQHPLQLNKDTVCKPCLAGYFSDAFSSTDKCRPWTNCTFLGKRVEHHGTEKSDAVCSSSLPARKPPNEPHVYLP
notes: extracellular domain
Turning to B11, the binding result in [2] is “no binding”.

B12: DcR1-Fc (Fc fusion, UniProt O14798 26-236, looked up, not shown: a dimerising Fc or GST)
chain: ATTARQEEVPQQTVAPQQQRHSFKGEECPAGSHRSEHTGACNPCTEGVDYTNASNNEPSCFPCTVCKSDQKHKSSCTMTRDTVCQCKEGTFRNENSPEMCRKCSRCPSGEVQVSNCTSWDDIQCVEEFGANATVETPAAEETMNTSPGTPAPAAEETMNTSPGTPAPAAEETMTTSPGTPAPAAEETMTTSPGTPAPAAEETMITSPGTPA
notes: extracellular domain
With B12, the binding result in assay [2] is on record as “no binding”.
